Reference: publication PMC7352286, “The Heterooligomerization of Human Small Heat Shock Proteins Is Controlled by Conserved Motif Located in the N-Terminal Domain” (International Journal of Molecular Sciences, 2020)
Changes are numbered by the printed parent chain.

T1: wild-type human small heat shock protein HspB6 (human, UniProt O14558 1-160)
T1 construct: HspB6, human, UniProt O14558; WT cDNA in pET22b or pET23a, parent of the full-size mutants; No tag is named; also called WT HspB6; source: E. coli BL21(DE3) pLysS, purified (ammonium sulfate, HiTrap Phenyl-Sepharose, Superdex 200)
T1 sequence (looked up): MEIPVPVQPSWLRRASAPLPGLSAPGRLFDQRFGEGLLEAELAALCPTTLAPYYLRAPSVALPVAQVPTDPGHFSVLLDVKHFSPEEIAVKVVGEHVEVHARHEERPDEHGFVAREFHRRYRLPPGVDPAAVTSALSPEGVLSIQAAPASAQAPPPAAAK

T2: wild-type human small heat shock protein HspB6 (human), O14558
T2 chain: T1 sequence (looked up)

B1: wild-type human small heat shock protein HspB5 (natural protein, UniProt P02511 1-175, looked up)
chain: MDIAIHHPWIRRPFFPFHSPSRLFDQFFGEHLLESDLFPTSTSLSPFYLRPPSFLRAPSWFDTGLSEMRLEKDRFSVNLDVKHFSPEELKVKVLGDVIEVHGKHEERQDEHGFISREFHRKYRIPADVDPLTITSSLSSDGVLTVNGPRKQVSGPERTIPITREEKPAVTAAPKK
notes: WT cDNA in pET22b or pET23a, parent of the full-size mutants; No tag is named; Forms large homooligomers; also called WT HspB5; source: E. coli BL21(DE3) pLysS, purified (ammonium sulfate, HiTrap Q, Superdex 200)
B2: HspB5 R22A (natural protein, human, UniProt P02511 1-175, looked up)
chain: B1 chain with R22A
notes: also called R/A HspB5; R/A mutant of HspB5; source: E. coli BL21(DE3) pLysS, purified (ammonium sulfate, HiTrap Q, Superdex 200)
B3: HspB5 Δ21–25 (natural protein, human, UniProt P02511 1-175, looked up)
chain: MDIAIHHPWIRRPFFPFHSPQFFGEHLLESDLFPTSTSLSPFYLRPPSFLRAPSWFDTGLSEMRLEKDRFSVNLDVKHFSPEELKVKVLGDVIEVHGKHEERQDEHGFISREFHRKYRIPADVDPLTITSSLSSDGVLTVNGPRKQVSGPERTIPITREEKPAVTAAPKK
notes: also called Δ HspB5; Δ mutant of HspB5; source: E. coli BL21(DE3) pLysS, purified (ammonium sulfate, HiTrap Q, Superdex 200)
B4: HspB6 Δ26–30 (natural protein, human, UniProt O14558 1-160, looked up)
chain: MEIPVPVQPSWLRRASAPLPGLSAPQRFGEGLLEAELAALCPTTLAPYYLRAPSVALPVAQVPTDPGHFSVLLDVKHFSPEEIAVKVVGEHVEVHARHEERPDEHGFVAREFHRRYRLPPGVDPAAVTSALSPEGVLSIQAAPASAQAPPPAAAK
notes: also called Δ HspB6; Δ mutant of HspB6; source: E. coli BL21(DE3) pLysS, purified (ammonium sulfate, HiTrap Phenyl-Sepharose, Superdex 200)
B5: wild-type human small heat shock protein HspB6, O14558 1-160 (natural protein)
chain: T1 sequence (looked up)
B6: HspB6 R27A (natural protein, human, UniProt O14558 1-160, looked up)
chain: T1 sequence (looked up) with R27A
notes: also called R/A HspB6; R/A mutant of HspB6; source: E. coli BL21(DE3) pLysS, purified (ammonium sulfate, HiTrap Phenyl-Sepharose, Superdex 200)

Tests used:
[1] = target: T1, wild-type human small heat shock …; experiment: SEC; equimolar mixture (30–40 µM each), reduced, preincubated 1 h at 42 °C in buffer B (20 mM Tris-acetate, 150 mM NaCl, 0.1 mM EDTA, 15 mM mercaptoethanol); Superdex 200 HR 10/30; fractions on SDS gels; correlation coefficient and molar ratio from band intensities; details: both partners purified
HspB6 Δ26–30 = target: B4; experiment: as above; details: both partners purified
HspB6 R27A = target: B6; experiment: as above; details: both partners purified
[2] = target: the molecule itself; experiment: SEC; isolated protein on Superdex 200 HR 10/30 in buffer B; apparent molecular weight against standards
[3] = target: T2, wild-type human small heat shock …; experiment: as above; details: remark: other sources report otherwise

| Binder | correlation coefficient [1] | binding result [2] | other results |
| --- | --- | --- | --- |
| B1 | 0.99 | binds | stoichiometry N [1]: ~2 HspB5/HspB6 molar ratio; correlation coefficient (HspB6 Δ26–30): 0.98; correlation coefficient (HspB6 R27A): 0.99 |
| B2 | 0.99 | binds | – |
| B3 | 0.98 | binds | – |
| B4 | – | binds | – |
| B5 | – | – | stoichiometry N [3]: 2 |
| B6 | – | binds | – |
